Results: article PMC3791462, “Role of the C-terminal domain in the structure and function of tetrameric sodium channels” (Nature Communications, 2013)

B1: NavMs-pore+CTD (wild-type pore with full-length C-terminal domain of the NavMs sodium channel from Magnetococcus marinus MC-1) (domain or fragment, UniProt A0L5S6 130-274, looked up)
chain: GVGSVAALLTVVFYIAAVMATNLYGATFPEWFGDLSKSLYTLFQVMTLESWSMGIVRPVMNVHPNAWVFFIPFIMLTTFTVLNLFIGIIVDAMAITKEQEEEAKTGHHQEPISQTLLHLGDRLDRIEKQLAQNNELLQRQQPQKK
notes: Plasmid pET15b; also called unlabelled wild-type construct; wild-type pore+CTD protein; source: E. coli C41(DE3), purified (HisTrap HP, thrombin, second HisTrap HP, size exclusion) in HEGA-10
B2: NavMs-pore+CTD A223C, PROXYL spin-labelled (domain or fragment, Magnetococcus marinus MC-1, UniProt A0L5S6 130-274, looked up)
chain: GVGSVAALLTVVFYIAAVMATNLYGATFPEWFGDLSKSLYTLFQVMTLESWSMGIVRPVMNVHPNAWVFFIPFIMLTTFTVLNLFIGIIVDAMCITKEQEEEAKTGHHQEPISQTLLHLGDRLDRIEKQLAQNNELLQRQQPQKK
modifications: 3-(2-iodoacetamido)-PROXYL nitroxide spin label on cysteine 223
notes: source: E. coli C41(DE3), purified (HisTrap HP, thrombin, size exclusion), spin-labelled
B3: NavMs-pore+CTD A260C, PROXYL spin-labelled (domain or fragment, Magnetococcus marinus MC-1, UniProt A0L5S6 130-274, looked up)
chain: GVGSVAALLTVVFYIAAVMATNLYGATFPEWFGDLSKSLYTLFQVMTLESWSMGIVRPVMNVHPNAWVFFIPFIMLTTFTVLNLFIGIIVDAMAITKEQEEEAKTGHHQEPISQTLLHLGDRLDRIEKQLCQNNELLQRQQPQKK
modifications: 3-(2-iodoacetamido)-PROXYL nitroxide spin label on cysteine 260
notes: as for B2
B4: NavMs-pore+CTD A221C, PROXYL spin-labelled (domain or fragment, Magnetococcus marinus MC-1, UniProt A0L5S6 130-274, looked up)
chain: GVGSVAALLTVVFYIAAVMATNLYGATFPEWFGDLSKSLYTLFQVMTLESWSMGIVRPVMNVHPNAWVFFIPFIMLTTFTVLNLFIGIIVDCMAITKEQEEEAKTGHHQEPISQTLLHLGDRLDRIEKQLAQNNELLQRQQPQKK
modifications: 3-(2-iodoacetamido)-PROXYL nitroxide spin label on cysteine 221
notes: as for B2
B5: NavMs-pore+CTD A232C, PROXYL spin-labelled (domain or fragment, Magnetococcus marinus MC-1, UniProt A0L5S6 130-274, looked up)
chain: GVGSVAALLTVVFYIAAVMATNLYGATFPEWFGDLSKSLYTLFQVMTLESWSMGIVRPVMNVHPNAWVFFIPFIMLTTFTVLNLFIGIIVDAMAITKEQEEECKTGHHQEPISQTLLHLGDRLDRIEKQLAQNNELLQRQQPQKK
modifications: 3-(2-iodoacetamido)-PROXYL nitroxide spin label on cysteine 232
notes: as for B2
B6: NavMs-pore+CTD I241C, PROXYL spin-labelled (domain or fragment, Magnetococcus marinus MC-1, UniProt A0L5S6 130-274, looked up)
chain: GVGSVAALLTVVFYIAAVMATNLYGATFPEWFGDLSKSLYTLFQVMTLESWSMGIVRPVMNVHPNAWVFFIPFIMLTTFTVLNLFIGIIVDAMAITKEQEEEAKTGHHQEPCSQTLLHLGDRLDRIEKQLAQNNELLQRQQPQKK
modifications: 3-(2-iodoacetamido)-PROXYL nitroxide spin label on cysteine 241
notes: as for B2
B7: NavMs-pore+CTD K273C, PROXYL spin-labelled (domain or fragment, Magnetococcus marinus MC-1, UniProt A0L5S6 130-274, looked up)
chain: GVGSVAALLTVVFYIAAVMATNLYGATFPEWFGDLSKSLYTLFQVMTLESWSMGIVRPVMNVHPNAWVFFIPFIMLTTFTVLNLFIGIIVDAMAITKEQEEEAKTGHHQEPISQTLLHLGDRLDRIEKQLAQNNELLQRQQPQCK
modifications: 3-(2-iodoacetamido)-PROXYL nitroxide spin label on cysteine 273
notes: as for B2
B8: NavMs-pore+CTD R268C, PROXYL spin-labelled (domain or fragment, Magnetococcus marinus MC-1, UniProt A0L5S6 130-274, looked up)
chain: GVGSVAALLTVVFYIAAVMATNLYGATFPEWFGDLSKSLYTLFQVMTLESWSMGIVRPVMNVHPNAWVFFIPFIMLTTFTVLNLFIGIIVDAMAITKEQEEEAKTGHHQEPISQTLLHLGDRLDRIEKQLAQNNELLQCQQPQKK
modifications: 3-(2-iodoacetamido)-PROXYL nitroxide spin label on cysteine 268
notes: as for B2
B9: NavMs-pore+CTD A221C/D250C double mutant, PROXYL spin-labelled (domain or fragment, Magnetococcus marinus MC-1, UniProt A0L5S6 130-274, looked up)
chain: GVGSVAALLTVVFYIAAVMATNLYGATFPEWFGDLSKSLYTLFQVMTLESWSMGIVRPVMNVHPNAWVFFIPFIMLTTFTVLNLFIGIIVDCMAITKEQEEEAKTGHHQEPISQTLLHLGCRLDRIEKQLAQNNELLQRQQPQKK
modifications: 3-(2-iodoacetamido)-PROXYL nitroxide spin labels on cysteines 221 and 250
notes: as for B2
B10: NavMs-pore+CTD D250C, PROXYL spin-labelled (domain or fragment, Magnetococcus marinus MC-1, UniProt A0L5S6 130-274, looked up)
chain: GVGSVAALLTVVFYIAAVMATNLYGATFPEWFGDLSKSLYTLFQVMTLESWSMGIVRPVMNVHPNAWVFFIPFIMLTTFTVLNLFIGIIVDAMAITKEQEEEAKTGHHQEPISQTLLHLGCRLDRIEKQLAQNNELLQRQQPQKK
modifications: 3-(2-iodoacetamido)-PROXYL nitroxide spin label on cysteine 250
notes: as for B2

Target: the molecule itself
Test: SEC; Superdex 200 10/300 GL, buffer A (10 mM Tris-HCl pH 7.5, 100 mM NaCl, 0.52% HEGA-10); detergent-solubilised protein

| Protein | stoichiometry N |
| --- | --- |
| B1 | 4 |
| B2 | 4 |
| B3 | 4 |
| B4 | 4 |
| B5 | 4 |
| B6 | 4 |
| B7 | 4 |
| B8 | 4 |
| B9 | 4 |
| B10 | 4 |
